One assay relates to di-SUMO2–GFP–HA2. Briefly: Proteasomal targeting of di-SUMO2–GFP–HA2 by RNF4 in yeast. The assay is classed as cell-based, S. cerevisiae. The source says:
(§1) For expression in Escherichia coli, linear poly-SUMO chains were generated as described previously with slight modifications. After the combined PCR/ligation reaction, the 4×SUMO2-ΔN11 or 4×SUMO1-ΔN15 DNA polymers were separated from smaller polymers by agarose gel electrophoresis and individually extracted (Macherey–Nagel). These were then subjected to a second PCR with primers to create BamHI and XhoI restriction sites, a C-terminal GG motif and a stop codon. The resulting fragments coding for di-, tri- and tetra-SUMO2-ΔN11 or SUMO1-ΔN15 chains were amplified and cloned into pGEX-4T2. […] Each monomer in these chains is separated by RS replacing the natural GG motif. […]
(§2) wt (wild-type) S. cerevisiae strains (JD47-13C) containing centromeric (low copy) plasmids expressing various (SUMO2)n–GFP–HA2 ([…]) fusions were grown overnight in minimal medium composed of 0.67% yeast nitrogen base with 2% raffinose as a carbon source. Cells from the overnight cultures were used to inoculate cultures with minimal media containing 2% galactose at a starting attenuance measured at 600 nm of 0.25. […] The levels of substrates and, as a loading control, levels of CDC11 were analysed by Western blotting and detection with an Odyssey infrared fluorescence imaging system (LI-COR).

The test system of a further assay is tri-SUMO2–GFP–HA2. Briefly: Proteasomal targeting of tri-SUMO2–GFP–HA2 by RNF4 in yeast. Type of assay: cell-based, S. cerevisiae. The conditions noted are these: yeast coexpressing RNF4; Western blot, normalized to CDC11.
Text: as §1, §2

Another assay relates to tetra-SUMO2–GFP–HA2. Nature of the assay: Proteasomal targeting of tetra-SUMO2–GFP–HA2 by RNF4 in yeast. The conditions noted are these: yeast coexpressing RNF4; Western blot, normalized to CDC11. Type of assay: cell-based, S. cerevisiae.
Text: as §1, §2
For orientation: In western blotting, separated proteins are transferred to a membrane and probed.

The subject of a further assay is PML-NBs in HeLa cells. Nature of the assay: Disruption of PML-NBs by overexpression of RNF4 in HeLa cells. Type of assay: cell-based. The conditions noted are these: HeLa cells transfected with HA-tagged full-length RNF4; automatic image analysis, 30 to 60 cells per condition; GFP control plasmid 12 PML-NBs, untreated average 15. The method, then: HeLa B-cells were grown on coverslips and fixed in PBS with 3% paraformaldehyde. After permeabilization in PBS with 0.2% saponin (Sigma–Aldrich), cells were blocked in PBS, 3% BSA and 0.2% saponin. Primary and Alexa Fluor®-labelled secondary antibodies (Invitrogen) were applied in blocking buffer. Coverslips were embedded in ProLong® Gold Antifade (Invitrogen) and examined using a Zeiss Axioplan2 fluorescence microscope. Proteins and epitope tags were detected with the following antibodies against PML (A167 and A168; Bethyl), HA (haemagglutinin) (3F10; Roche, 16B12; Covance) and CDC11 (SC-7170; Santa Cruz Biotechnology). The secondary antibodies were labelled with Alexa Fluor® 546, Alexa Fluor® 647 or Alexa Fluor® 670 (Invitrogen), or IRDye800 (Rockland). For quantification of PML-NBs, cells were acquired using a Zeiss Meta 510 Confocal microscope, 63× objective NA (numerical aperture) 1.4 and appropriate laser and filter settings. Z-stacks were taken according to Nyquist criteria. Microscopic pictures were analysed with Volocity 6.2 Cellular Imaging & Analysis Software (PerkinElmer). Transfected cells were automatically identified within the 546 nm channel and the amount of PML-NBs (647 nm channel) that were localized within the nuclei of transfected cells were automatically counted.

B1: RNF4 FL: full-length human RNF4 (RING finger protein 4); FLAG-tagged in yeast, HA-tagged in HeLa cells (protein)
chain: MSTRKRRGGAINSRQAQKRTREATSTPEISLEAEPIELVETAGDEIVDLTCESLEPVVVDLTHNDSVVIVDERRRPRRNARRLPQDHADSCVVSSDDEELSRDRDVYVTTHTPRNARDEGATGLRPSGTVSCPICMDGYSEIVQNGRLIVSTECGHVFCSQCLRDSLKNANTCPTCRKKINHKRYHPIYI
modifications: left off: GST, end not stated, cleaved
notes: full-length human RNF4 (RING finger protein 4); FLAG-tagged in yeast, HA-tagged in HeLa cells
Regarding B1, in the assay with di-SUMO2–GFP–HA2 (yeast coexpressing RNF4, Western blot, normalized to CDC11), the “level of di-SUMO2–GFP–HA reporter (control without RNF4 = 100%)” value is on record as “approximately 55%”. Further, the “targeting of di-SUMO2 in yeast” value in the assay with di-SUMO2–GFP–HA2 (yeast coexpressing wt RNF4) is recorded as “efficiently targets di-SUMO2 in yeast”. In addition, the “level of tri-SUMO2–GFP–HA reporter (control without RNF4 = 100%)” value in the assay on tri-SUMO2–GFP–HA2 is reported as 45%. The “level of tetra-SUMO2–GFP–HA reporter (control without RNF4 = 100%)” value in the assay with tetra-SUMO2–GFP–HA2 came out at 43%. The “number of PML-NBs after transfection” value in the assay with PML-NBs in HeLa cells is “approximately five”.

The values above are taken from paper PMC3901395, “Multivalent interactions of the SUMO-interaction motifs in RING finger protein 4 determine the specificity for chains of the SUMO” (Biochemical Journal, 2013).
